Patent US20160168210A1, “DERIVATIVES OF COLLAGEN-BINDING HAIRPIN PEPTIDES” (NATIONAL RESEARCH COUNCIL OF CANADA, priority 2012, published 2016)
“Also recorded” adds a separate entry of the source. Where no end group is shown, it is not given here.

B1: IRFTDGEWTWDDATKTWTWTE-GGS-VHpro10 (protein)
chain: IRFTDGEWTWDDATKTWTWTEGGSDVQLQASGGGLVQAGGSLRLTCAASGRTFDRYGWFRQAPGKEREFVASIGTRLHYADSVKGRFTISRDNAKSTAFLEMNSLKPEDTAVYYCAAAESTRNWYYKMSNDYDYWGQGTQVTVSSLEHHHHHH
modifications: WZ4-GGS-VHpro10 - molecule of Formula (I)
notes: trpzip4-VH conjugate, VHpro10 is a prothrombin-specific antibody VHH fragment

Tests used:
rat-tail collagen type I [1] = target: rat-tail collagen type I (Rattus norvegicus, UniProt P02454+P02466); assay: Collagen binding/responsiveness of peptides by proton NMR and H-15N HSQC spectroscopy; design: rat-tail collagen type I (at 4 mg/ml in 0.02 N acetic acid); purchased BD Bioscience; host or cells: rat tail (tissue-derived); conditions: for response to / binding of collagen (NMR spectral perturbations): peptide free in solution vs in the presence of collagen; for NMR perturbations after collagen gelation (polymerization); reversibility of collagen binding: before vs after collagen gelation
Procedure: Rat collagen hydrogels were prepared using rat-tail collagen type I (at 4 mg/ml in 0.02 N acetic acid) from BD Bioscience. A volume of 200 μL of the concentrated collagen solution was mixed with an equal volume of a buffer solution that was 400 mM in Tris-HCl and 400 mM in NaCl with a pH of 7.6 and with 50 μL of deuterated water (D2O). The sample mixture was transferred to an NMR tube followed by gentle mixing under agitation using a Thermolyne™ Max Mix-II apparatus. The NMR tube containing the collagen solution was placed within the RF probe housed in a 500 MHz super-conducting magnet (Bruker Avance-500 NMR spectrometer). The probe and sample bulk temperature was kept at 277 K for 3 hours and then elevated to 310 K at a rate of 1 degree/10 min to enable fibril alignment during a slow process of collagen gelation under the influence of the magnetic field (Ma 2008). The degree of fibril alignment of the collagen hydrogels was determined by use of deuterium NMR spectroscopy of the added D2O as described (Ma 2008). […]
Randomly-deposited collagen (hydrogel) matrix was prepared following the same procedure as above for partially aligned hydrogels, except that the RF probe and the NMR tube (or test tubes) containing the collagen solution were placed outside the magnetic field. Peptides containing collagen-binding hairpins were introduced into the hydrogels in two ways, the first with the collagen stock solution diluted (50:50 in volume ratio) by the buffer of 400 mM in Tris-HCl and 400 mM in NaCl at pH 7.6 containing the peptides of interest (i.e. for FIGS. 1A & 1D), which gelates in the presence of the added peptide. Alternatively, peptides in an appropriate buffer were introduced to the top of the hydrogel matrix (i.e. for FIGS. 1B & 1C) preformed in the NMR tube (or test tube) following the procedures described above. The behavior of the peptides in the hydrogels was followed by use of NMR H-^15N HSQC spectra for ^15N-labelled peptides (FIG. 1) and/or by use of one-dimensional proton NMR spectroscopy (FIG. 2).
Deuterium NMR spectroscopy studies of collagen responsiveness (and/or binding) for each peptide were carried out using a volume of (400-X) μL of a peptide dissolved in pure water mixed with 50 μL of a 10×PBS (phosphate-buffered saline) supplemented by sodium phosphate to a final concentration of 50 mM, with 50 μL of deuterated water (D2O) to form the reference sample (where X=0), or the peptide-collagen complex with X μL of rat-tail collagen type I (at 3.6 to 4 mg/ml in 0.02 N acetic acid from BD Bioscience) adjusted to achieve the desired final concentration of collagen. The pH value of the reference peptide samples was adjusted to match the pH of the final peptide-collagen complex in order to facilitate NMR spectral comparison. The peptide-collagen solutions were also subjected to gelation under magnetic field guidance followed by the measurement of fibril alignment (Ma 2008) as a semi-quantitative indication of peptide-collagen binding. Deuterium coupling constants measuring the degree of collagen fibril alignment were reduced by more than 1.0 Hz for MH2-wZIP4, by less than 0.5 Hz for MH2-wZIP6 and MH2-wZIP5, which parallel those observed for trpzip4, trpzip6, trpzip5 and the gb1 peptide (see Example 4). As a comparison, a solution of rat collagen at a concentration of 1.8 mg/ml in 200 mM Tris-Cl/200 mM NaCl at pH 7.6 formed a partially-aligned hydrogel with a deuterium coupling constant (Ma, 2008) of 2.5 Hz, while a solution of rat collagen at a concentration of 3 mg/ml in PBS (137 mM NaCl/2.68 mM KCl/10.1 mM Na2HPO4/1.76 mM KH2PO4) supplemented with Na2HPO4 to achieve a final concentration of 50 mM at pH 7.4 formed a partially-aligned hydrogel with a deuterium coupling constant of 4.8 Hz. A solution of human collagen at a concentration of 2.23 mg/ml in PBS supplemented with Na2HPO4 with a final concentration of 50 mM at pH 7.4 formed a partially-aligned hydrogel with a deuterium coupling constant of 1.3 Hz.

[2] = test system: abdominal vena cava injured by FeCl3; conditions: I.V. 30 minutes after FeCl3; about 1/4 of the highest FL4247 dose
Excerpt: The application of ferric chloride on venous and arterial vessels was therefore the method used to produce the inflamed vasculature in the animal model. The carotid artery (arterial model) and the abdominal vena cava (venous model) were the chosen vessels for the imaging experiments with injured blood vessels undergong thrombosis.
The FeCl3 rat venous model of thrombosis was generated as described (Wang 2005) with some modifications. Briefly, rats were anesthetized with a 2.5% isoflurane/oxygen mixture and placed on a heat source (35-37° C.). The vena cava was then exposed via a midline incision and the region between the renal and iliolumbar veins was isolated. One minute after drug administration, a piece of filter paper (Gel Blot Paper, GB003, Whatman, Piscataway, N.J., USA; 7 mm diameter) saturated with 10% FeCl3 (EMD Chemicals Inc., Gibbstown, N.J., USA) was placed on the exposed surface of the vena cava and incubated for 3.5 minutes. During the application of FeCl3, the abdominal region was covered with aluminum foil. At the end of the incubation period, the filter paper was removed and the exposed viscera covered with a saline-soaked gauze.
In these imaging experiments, there were also a 30-minute waiting time after introduction of FeCl3 to the exposed vena cava to ensure the development of substantial vascular injury and the deposition of a thrombus.

rat-tail collagen type I [3] = target: T1, rat-tail collagen type I (rat, UniProt P02454 152-1207; P02466 86-1125); assay: proton NMR, free against with collagen
T1 construct: also called type-I collagen; unpolymerized collagen
T1 sequence (P02454 152-1207 limits assumed, chain 1 of 2): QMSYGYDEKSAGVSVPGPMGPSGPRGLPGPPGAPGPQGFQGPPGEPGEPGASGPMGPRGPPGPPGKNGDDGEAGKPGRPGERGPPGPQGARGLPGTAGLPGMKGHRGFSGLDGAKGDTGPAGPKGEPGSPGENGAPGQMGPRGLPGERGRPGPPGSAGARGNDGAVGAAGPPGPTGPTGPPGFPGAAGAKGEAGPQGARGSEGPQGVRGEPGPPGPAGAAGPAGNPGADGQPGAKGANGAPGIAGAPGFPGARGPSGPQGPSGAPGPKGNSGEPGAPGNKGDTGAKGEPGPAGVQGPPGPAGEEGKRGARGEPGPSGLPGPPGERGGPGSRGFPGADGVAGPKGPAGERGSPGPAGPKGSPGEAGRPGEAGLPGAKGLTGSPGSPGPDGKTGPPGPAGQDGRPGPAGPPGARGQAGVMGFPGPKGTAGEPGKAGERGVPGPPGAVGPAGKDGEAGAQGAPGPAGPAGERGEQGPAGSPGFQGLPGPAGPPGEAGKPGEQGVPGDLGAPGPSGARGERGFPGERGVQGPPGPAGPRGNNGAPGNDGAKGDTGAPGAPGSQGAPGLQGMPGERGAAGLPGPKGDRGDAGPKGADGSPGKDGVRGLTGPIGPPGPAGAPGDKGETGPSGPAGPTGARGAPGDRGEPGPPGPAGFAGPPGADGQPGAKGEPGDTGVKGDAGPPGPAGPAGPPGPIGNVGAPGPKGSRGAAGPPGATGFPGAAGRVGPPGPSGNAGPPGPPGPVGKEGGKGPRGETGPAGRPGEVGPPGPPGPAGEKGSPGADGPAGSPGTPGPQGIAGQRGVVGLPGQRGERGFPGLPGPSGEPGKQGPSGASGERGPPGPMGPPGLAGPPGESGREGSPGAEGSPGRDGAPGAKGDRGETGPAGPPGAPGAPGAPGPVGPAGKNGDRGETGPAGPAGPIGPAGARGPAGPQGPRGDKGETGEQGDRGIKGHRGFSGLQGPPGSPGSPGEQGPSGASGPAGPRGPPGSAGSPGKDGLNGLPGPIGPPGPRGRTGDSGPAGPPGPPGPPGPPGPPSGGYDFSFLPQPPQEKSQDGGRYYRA
T1 sequence (P02466 86-1125 limits assumed, chain 2 of 2): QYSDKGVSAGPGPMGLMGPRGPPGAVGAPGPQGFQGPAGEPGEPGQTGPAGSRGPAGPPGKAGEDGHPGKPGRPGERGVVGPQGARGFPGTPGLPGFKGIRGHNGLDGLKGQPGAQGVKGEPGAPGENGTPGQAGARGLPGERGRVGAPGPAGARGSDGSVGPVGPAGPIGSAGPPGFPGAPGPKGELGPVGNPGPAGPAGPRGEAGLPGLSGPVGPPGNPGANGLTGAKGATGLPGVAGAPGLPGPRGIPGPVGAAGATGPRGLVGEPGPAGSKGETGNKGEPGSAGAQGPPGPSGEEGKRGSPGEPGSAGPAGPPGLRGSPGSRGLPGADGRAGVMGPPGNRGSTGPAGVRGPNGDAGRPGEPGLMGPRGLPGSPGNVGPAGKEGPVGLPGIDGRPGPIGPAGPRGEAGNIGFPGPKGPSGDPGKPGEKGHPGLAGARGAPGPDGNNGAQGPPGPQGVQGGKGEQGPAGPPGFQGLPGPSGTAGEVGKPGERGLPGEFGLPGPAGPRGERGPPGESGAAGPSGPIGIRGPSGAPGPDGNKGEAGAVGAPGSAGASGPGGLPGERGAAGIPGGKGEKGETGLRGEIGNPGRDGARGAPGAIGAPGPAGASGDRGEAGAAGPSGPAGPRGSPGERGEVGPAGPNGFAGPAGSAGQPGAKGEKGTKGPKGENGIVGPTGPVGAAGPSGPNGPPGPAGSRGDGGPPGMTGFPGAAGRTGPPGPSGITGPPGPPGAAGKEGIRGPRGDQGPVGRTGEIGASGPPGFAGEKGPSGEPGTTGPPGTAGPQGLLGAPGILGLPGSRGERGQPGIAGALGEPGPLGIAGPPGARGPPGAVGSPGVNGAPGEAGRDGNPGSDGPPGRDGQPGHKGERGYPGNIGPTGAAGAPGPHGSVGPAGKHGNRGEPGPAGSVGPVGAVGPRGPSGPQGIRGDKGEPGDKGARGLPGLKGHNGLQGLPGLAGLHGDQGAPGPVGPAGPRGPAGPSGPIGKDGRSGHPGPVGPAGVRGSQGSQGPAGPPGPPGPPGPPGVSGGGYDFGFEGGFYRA

rat-tail collagen type I (Rattus norvegicus, UniProt P02454+P02466), sequence (P02454 152-1207 limits assumed): as the sequence (P02454 152-1207 limits assumed, chain 1 of 2) above
rat-tail collagen type I (Rattus norvegicus, UniProt P02454+P02466), sequence (P02466 86-1125 limits assumed): as the sequence (P02466 86-1125 limits assumed, chain 2 of 2) above

Molecule | response to / binding of collagen (NMR spectral perturbations) (rat-tail collagen type I [1]) | other results
SWTVENGKVTWK (W2W11-trpzip2 - does not bind collagen) [reference compound] | loses the collagen-binding capacity | 
TWRWNGSTAWTWS (CBLH peptide - pp-D7EUT8) | some proton NMR perturbations are observed | 
KEWTYNPATGKWTWTE [CBLH3] | almost identical collagen-binding characteristics | NMR perturbations after collagen gelation (polymerization); reversibility of collagen binding (rat-tail collagen type I [1]): certain degree of reversibility
TWTWNGSAWTWN (CBLH peptide - v4-gp120) [reference compound] | respond to collagen | 
IRFTDGGSWTWEGNKWTWKGGDFEEIPEEYLQ (MH2-wZIP1GG - molecule of Formula (I)) | responds similarly to collagen binding | 
SWTWENGKWTWK (SWTWENGKWTWK-NH2) [trpzip2, reference compound] | collagen-binding linear hairpin (CBLH) peptide | 
acetyl-STWTWNGSAWTWNEGGK (Ac-STWTWNGSAWTWNEGGK) | bind to type-I collagen | NMR perturbations after collagen gelation (polymerization); reversibility of collagen binding (rat-tail collagen type I [1]): essentially irreversible
MH2-wZIP6: bivalent thrombin inhibitor containing the trpzip6 sequence (WO/2012/142696) (GEWTWDDATKTWTVTE; also: bivalent thrombin inhibitor, other parts, small tags and cut ends not in chain) | varying degrees of entrapment | NMR perturbations after collagen gelation (polymerization); reversibility of collagen binding (rat-tail collagen type I [1]): reduced degree of proton NMR signal perturbations
SWTYENGKYTWK (SWTYENGKYTWK-NH2) [WYYW-trpzip2, reference compound] | retains a significant capacity for binding collagen | 
KKWTWNPATGKWTWQE (KKWTWNPATGKWTWQE-NH2) [HP5W4, reference compound] | CBLH peptides | 
GEWTWDDA (MH2-wZIP4-F2 - does not bind collagen) | lack of binding with collagen | 
GEWTWDDATKTWTWTEGDFEEIPEEYL (MH2-wZIP4-F3 - molecule of Formula (I)) | responds fully to collagen | 
SWTYEGNKWTWK (SWTYEGNKWTWK-NH2) [Y4-trpzip1, reference compound] | retain the collagne-binding capacity | 
acetyl-STWTWNGTNWTRNDGGK (Ac-STWTWNGTNWTRNDGGK) | bind to type-I collagen | NMR perturbations after collagen gelation (polymerization); reversibility of collagen binding (rat-tail collagen type I [1]): certain degree of reversibility
GEWTWNPATGKWTRTE (GEWTWNPATGKWTRTE-NH2) [CBLH2] | almost identical collagen-binding characteristics | NMR perturbations after collagen gelation (polymerization); reversibility of collagen binding (rat-tail collagen type I [1]): certain degree of reversibility
GEWTYNPATGKWTWTE (GEWTYNPATGKWTWTE-NH2) [CBLH1] | almost identical collagen-binding characteristics | NMR perturbations after collagen gelation (polymerization); reversibility of collagen binding (rat-tail collagen type I [1]): certain degree of reversibility

Molecule | response to / binding of collagen (NMR spectral perturbations) (rat-tail collagen type I [1]) | other results
KTWNPATGKWTE (HP7 - does not bind collagen) [reference compound] | does not respond to the addition of collagen | 
SWTWEGNKWTWK (SWTWEGNKWTWK-NH2) [trpzip1, reference compound] | respond to collagen | 
TWTWNGTNWTRN (CBLH peptide - v4-gp160) | responsive to the presence of collagen | 
MH2-wZIP5: bivalent thrombin inhibitor containing the trpzip5 sequence (WO/2012/142696) (GEWTYDDATKTFTWTE; also: bivalent thrombin inhibitor, other parts, small tags and cut ends not in chain) | varying degrees of entrapment | NMR perturbations after collagen gelation (polymerization); reversibility of collagen binding (rat-tail collagen type I [1]): reduced degree of proton NMR signal perturbations; also recorded: more pronounced loss of resonance perturbations as compared to MH2-wZIP6
GEWVWDDATKTWHWTE (GEWVWDDATKTWHWTE-NH2) [trpzip8, reference compound] | CBLH peptides | 
STWTWNGTNWTRNDGGC-Fluor750 (not fully specified (C-terminus); printed as STWTWNGTNWTRNDGGC-Fluor750; also: HiLyte Fluor750 conjugate) [FL4447] |  | fluorescence at the injured vena cava (whole-body and post-mortem imaging) [2]: somewhat reduced level of local fluorescence as compared to FL4247/FL4312
IRFTDGEWTWDDA (MH2-wZIP4-F1 - does not bind collagen) | does not respond to collagen binding | 
KEWTWNPATGKWTRTE (KEWTWNPATGKWTRTE-NH2) [CBLH4] | almost identical collagen-binding characteristics | NMR perturbations after collagen gelation (polymerization); reversibility of collagen binding (rat-tail collagen type I [1]): certain degree of reversibility
SWTYEGNKYTWK (SWTYEGNKYTWK-NH2) [Y4Y9-trpzip1, reference compound] | retain the collagne-binding capacity | 
KTWNPATGKWTE [HP7] |  | binding result (rat-tail collagen type I [3]): no binding
GEWTYDDATKTFTVTE-NH2 (also called gb1 peptide; gb1-NH2) [gb1] |  | binding result (rat-tail collagen type I [3]): no binding
B1 |  | NMR perturbations / release after collagen degradation by a collagenase (rat-tail collagen type I [1]; collagenase treatment): gradually came into view while the collagen gel dissembles in the presence of a collagenase
SWTVENGKVTWK [W2W11-trpzip2] |  | binding result (rat-tail collagen type I [3]): no binding
IRFTDGEWTWDDA (also called P4233) [MH2-wZIP4-F1] |  | binding result (rat-tail collagen type I [3]): no binding
GEWTWDDA (also called P4236) [MH2-wZIP4-F2] |  | binding result (rat-tail collagen type I [3]): no binding
